Reference: the supplement of paper PMC10126150
± gives the standard deviation of the averaged measurements.

Tested on: ATP
Experiment: switch fluorescence ratio, 500 uM ATP over buffer (Cy3 cluster intensity, sum of 5 cycles each) (fold (ratio)); higher = stronger signal-on switching upon ATP binding; sequences stand for … in TCGTCGGCAGCGTCAGATGTGTATAAGAGACAGTTTTTTTTTTTTTTTTTTTTTTTTT…TC
Details: aptamer strand: ATP DNA aptamer (quencher-CACCTGGGGGAGTATTGCGGAGGAAGG + anchor), 100 nM annealed; ATP concentration: 500 uM
Method in brief: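 Per cluster, summed Cy3 intensity from the target cycles was divided by that from the buffer cycles to give the fluorescence ratio, then averaged per switch-domain sequence. Clusters outside 100-1000 RFU were excluded. The Cy3-labelled switching-strand clusters, on a modified Illumina MiSeq flow-cell, were annealed to 100 nM quencher-labelled ATP aptamer and imaged in selection buffer, then after 15 min with 500 uM ATP at 22 °C, for five cycles with NaOH stripping and re-annealing between them.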
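Further: ATP exposure 15 min at 22 °C before imaging.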

Row | Sequence | switch fluorescence ratio
1 | AATGAAAGGT | 1.01 ± 0.022
2 | AAATTCGTTA | 0.983 ± 0.048
3 | CGTGTTAATT | 0.982 ± 0.034
4 | CGGGGTTCCG | 0.9532 ± 0.0064
5 | TTAGTTGCTT | 1.01 ± 0.03
6 | TAGGGGTCCT | 1.01 ± 0.046
7 | ATGATCTTCG | 1.038 ± 0.0053
8 | GAAATCATTA | 1.016 ± 0.01
9 | TTTATAGAGC | 1.03 ± 0.054
10 | CATCATGTAC | 1.33 ± 0.059
11 | CAGGTGGGTC | 1.02 ± 0.018
12 | ACTTTATGTG | 0.996 ± 0.035
13 | GCCATTTATT | 0.977 ± 0.024
14 | TATAGCGGGG | 1.02 ± 0.015
15 | CGGAGGGGTA | 1.13 ± 0.16
16 | CTGGTTTGAG | 0.97 ± 0.012
17 | AGAATGGTAT | 1.07 ± 0.08
18 | GGATAAAGGT | 0.978 ± 0.018
19 | CCGCGAGCTA | 4.52 ± 1.1
20 | TTGGAGATAT | 1.07 ± 0.13
21 | GGCACACAGT | 1 ± 0.015
22 | GCCACAAATT | 1.01 ± 0.033
23 | TTGTTTGGGG | 0.998 ± 0.026
24 | AAAAATGGTG | 0.981 ± 0.033
25 | AAGGGAAGTG | 0.982 ± 0.069

Row | Sequence | switch fluorescence ratio
26 | ATAGTACTTT | 1.05 ± 0.044
27 | AATTTCGGGT | 0.9877 ± 0.0096
28 | TTGGACGGTA | 1.06 ± 0.1
29 | ACCAGGTATG | 1.12 ± 0.016
30 | TTACGTTCCT | 1.5 ± 0.13
31 | GATCAGAGGA | 1.05 ± 0.039
32 | CGCCGTCTGG | 1.03 ± 0.0039
33 | GGTCGCTGCG | 0.9956 ± 0.0069
34 | GCTCAGGGGG | 1.03 ± 0.016
35 | GAAGGTCAGT | 0.971 ± 0.051
36 | GGGACCAGGG | 0.989 ± 0.027
37 | GGTTTTAGGT | 0.988 ± 0.035
38 | CAGCCGACCG | 1.163 ± 0.0088
39 | ATGTTACATT | 1.01 ± 0.038
40 | GGCGGGACCG | 0.959 ± 0.03
41 | TCCAAAGATG | 0.9892 ± 0.005
42 | ATAGGGGTCG | 1.01 ± 0.076
43 | AGAGAGTTTA | 1.04 ± 0.021
44 | GGTGAAGAGT | 1 ± 0.038
45 | TATGAAAGTA | 0.999 ± 0.033
46 | AATTGGAAGG | 0.993 ± 0.012
47 | GCTGGGTAAC | 1.006 ± 0.0034
48 | GGTATGATGG | 0.991 ± 0.01
49 | TTGTTGAGGA | 1.01 ± 0.028
50 | TTTGTGGGAT | 0.998 ± 0.043

Row | Sequence | switch fluorescence ratio
51 | GGGTTAGGGC | 0.988 ± 0.023
52 | AAAACGAGAT | 1.05 ± 0.039
53 | CGCCCTCAAG | 1.03 ± 0.029
54 | AAAGGCATTC | 1.05 ± 0.025
55 | TTCCACATTT | 1.12 ± 0.16
56 | CCTTGGGGGA | 1.14 ± 0.055
57 | TGTTTGGTAA | 0.981 ± 0.024
58 | TTGGTGACCG | 1.03 ± 0.036
59 | GCGGCCAGGG | 1.23 ± 0.15
60 | TTAGCTATTA | 0.9858 ± 0.0043
61 | AGGTGTTTGC | 1.05 ± 0.028
62 | GGCCACAGCA | 1.07 ± 0.016
63 | CGGCGTAAAA | 1.13 ± 0.21
64 | GGGTTGACGG | 0.986 ± 0.057
65 | CGAGTGAAAT | 1 ± 0.018
66 | TTTAAGCGTT | 1.054 ± 0.0066
67 | ATGACGCTTT | 1.02 ± 0.022
68 | TTGCGTTGCG | 0.9685 ± 0.0036
69 | ATGAATTTTT | 0.992 ± 0.042
70 | CAGGGGTGCT | 1.03 ± 0.03
71 | AAAAAGGTTT | 0.978 ± 0.037
72 | GAGTACGCTA | 3.07 ± 1.2
73 | GGGGAGGTCT | 1.01 ± 0.03
74 | GCCTTCTGGA | 1.05 ± 0.036
75 | AACGTGTACG | 1.01 ± 0.065

Row | Sequence | switch fluorescence ratio
76 | GTAGAAAGGA | 2.3 ± 1.8
77 | AGACTGCATT | 1.06 ± 0.03
78 | GGGGGCCCGT | 1.46 ± 0.69
79 | TCGCTTGGGA | 1.03 ± 0.017
80 | TTCGGTTATA | 0.986 ± 0.053
81 | ACGTCAAGGT | 1.0871 ± 0.00061
82 | GTGGGGAAAG | 0.99 ± 0.034
83 | TACGGGAATT | 1.04 ± 0.023
84 | GTCTTTAACT | 0.982 ± 0.059
85 | TTTTTGAGTT | 0.977 ± 0.032
86 | GCGGATGAGA | 1.056 ± 0.0096
87 | CGGAGTGAGG | 1.02 ± 0.014
88 | ACATGCAAGC | 1.64 ± 0.12
89 | TGGAGTTTGG | 1.15 ± 0.19
90 | TTGAGAGGGA | 0.99 ± 0.019
91 | CAGTGCCAGC | 0.999 ± 0.035
92 | GGAGGATTGG | 0.958 ± 0.017
93 | TTTATCACAG | 1.014 ± 0.0041
94 | GTGGGTTGTT | 0.9719 ± 0.005
95 | GAGGGAAGTT | 1.04 ± 0.037
96 | TTTAACTGG | 1.03 ± 0.036
97 | TCCTAGGTGT | 4 ± 0.28
98 | TGGGGTATTT | 0.997 ± 0.04
99 | CGATTTTCCT | 1.01 ± 0.015
100 | CGGGGGATTG | 0.988 ± 0.014
